In patent publication US20080044419A1, “Treatment of T Cell Mediated Diseases by Inhibition of Fgfr3” (Fibron Ltd., priority 2003, published 2008):

Legend:
[1] = molecular target: fibroblast growth factor receptor 3 (FGFR3), P22607; experiment: cell-based or functional assay
[2] = molecular target: fibroblast growth factor receptor 3 (FGFR3) (UniProt P22607); experiment: FACS
[3] = molecular target: fibroblast growth factor receptor 3 (FGFR3) (UniProt P22607); experiment: BIAcore
[4] = molecular target: fibroblast growth factor receptor 3 (FGFR3) (UniProt P22607); experiment: not stated (BIAcore presumably)

Row | Binder | IC50 FGFR3 (FGF9), FDCP-FGFR3 proliferation assay performed with FGF9 [1] | Kd [2] | further results
1 | PRO-001 Fab-dHLX (protein) VH: QVQLQQSGPGLVKPSQTLSLTCAISGDSVSSNSAAWNWIRQSPGRGLEWLGRTYYRSKWYNDYAVSVKSRITINPDTSKNQFSLQLNSVTPEDTAVYYCARSYYPDFDYWGQGTLVTVSS VL: DIELTQPPSVSVAPGQTARISCSGDALGDKYASWYQQKPGQAPVLVIYDDSDRPSGIPERFSGSNSGNTATLTISGTQAEDEADYYCQSYDGPDLWVFGGGTKLTVLGQ | 19 nM | – | –
2 | PRO-002 Fab-dHLX (protein) VH: QVQLVQSGAEVKKPGASVKVSCKASGYTFTSYYMHWVRQAPGQGLEWMGWINPNSGGTNYAQKFQGRVTMTRDTSISTAYMELSSLRSEDTAVYYCARDFLGYEFDYWGQGTLVTVSS VL: DIELTQPPSVSVAPGQTARISCSGDALGDKYASWYQQKPGQAPVLVIYDDSDRPSGIPERFSGSNSGNTATLTISGTQAEDEADYYCQSYDYSADYVFGGGTKLTVLGQ | 360 nM | – | –
3 | PRO-012 Fab-dHLX (protein) VH: QVQLKESGPALVKPTQTLTLTCTFSGFSLSTSGVGVGWIRQPPGKALEWLALIDWDDDKYYSTSLKTRLTISKDTSKNQVVLTMTNMDPVDTATYYCARYHSWYEMGYYGSTVGYMFDYWGQGTLVTVSS VL: DIELTQPPSVSVAPGQTARISCSGDALGDKYASWYQQKPGQAPVLVIYDDSDRPSGIPERFSGSNSGNTATLTISGTQAEDEADYYCQSYDFDFAVFGGTKLTVLGQ | 58 nM | – | –
4 | PRO-021 Fab-dHLX (protein) VH: QVQLVQSGAEVKKPGSSVKVSCKASGGTFSSYAISWVRQAPGQGLEWMGGIIPIFGTANYAQKFQGRTITADESTSTAYMELSSLRSEDTAVYYCARDNWFKPFSDVWGQGTLVTVSS VL: not shown | 50 nM | – | –
5 | PRO-024 Fab-dHLX (protein) VH: QVQLVQSGAEVKKPGSSVKVSCKASGGTFSSYAISWVRQAPGQGLEWMGGIIPIFGTANYAQKFQGRVTITADESTSTAYMELSSLRSEDTAVYYCARVNHWTYTFDYWGQGTLVTVSS VL: not shown | 70 nM | – | –
6 | PRO-026 Fab-dHLX (protein) VH: QVQLVQSGAEVKKPGASVKVSCKASGYTFTSYYMHWVRQAPGQGLEWMGWINPNSGGTNYAQKFQGRVTMTRDTSISTAYMELSSLRSEDTAVYYCARGYWYAYFTYINYGYFDNWGQGTLVTVSS VL: DIALTQPASVSGSPGQSITISCTGTSSDVGGYNYVSWYQQHPGKAPKLMIYDVSNRPSGVSNRFSGSKSGNTASLTISGLQAEDEADYYCQSYDNNSDVVFGGGTKLTVLGQ | 70 nM | – | –
7 | PRO-029 Fab-dHLX (protein) VH: QVQLVQSGAEVKKPGASVKVSCKASGYTFTSYYMHWVRQAPGQGLEWMGWINPNSGGTNYAQKFQGRVTMTRDTSISTAYMELSSLRSEDTAVYYCARTWQYSYFYYLDGGYYFDIWGQGTLVTVSS VL: DIVLTQSPATLSLSPGERATLSCRASQSVSSSYLAWYQQKPGQAPRLLIYGASSRATGVPARFSGSGSGTDFTLTISSLEPEDFATYYCQQTNNAPVTFGQGTKVEIKRT | 20 nM | – | –
8 | PRO-054 Fab-dHLX (protein) VH: QVQLVQSGAEVKKPGASVKVSCKASGYTFTSYYMHWVRQAPGQGLEWMGWINPNSGGTNYAQKFQGRVTMTRDTSISTAYMELSSLRSEDTAVYYCARNMAYTNYQYVNMPHFDYWGQGTLVTVSS VL: DIELTQPPSVSVAPGQTARISCSGDALGDKYASWYQQKPGQAPVLVIYDDSDRPSGIPERFSGSNSGNTATLTISGTQAEDEADYYCQSYDYFKLVFGGGTKLTVLGQ | 45 nM | – | –
9 | PRO-055 Fab-dHLX (protein) VH: QVQLVQSGAEVKKPGASVKVSCKASGYTFTSYYMHWVRQAPGQGLEWMGWINPNSGGTNYAQKFQGRVTMTRDTSISTAYMELSSLRSEDTAVYYCARSMNSTMYWYLRRVLFDHWGQGTLVTVSS VL: DIALTQPASVSGSPGQSITISCTGTSSDVGGYNYVSWYQQHPGKAPKLMIYDVSNRPSGVSNRFSGSKSGNTASLTISGLQAEDEADYYCQSYDMYNYIVFGGGTKLTVLGQ | 34 nM | – | –
10 | PRO-001 (Fab, V domains shown) VH: QVQLQQSGPGLVKPSQTLSLTCAISGDSVSSNSAAWNWIRQSPGRGLEWLGRTYYRSKWYNDYAVSVKSRITINPDTSKNQFSLQLNSVTPEDTAVYYCARSYYPDFDYWGQGTLVTVSS VL: DIELTQPPSVSVAPGQTARISCSGDALGDKYASWYQQKPGQAPVLVIYDDSDRPSGIPERFSGSNSGNTATLTISGTQAEDEADYYCQSYDGPDLWVFGGGTKLTVLG | – | 0.7 nM | Kd [3]: 1.5 nM; koff [4]: 0.00071 s⁻¹
11 | PRO-026 (Fab, V domains shown) VH: QVQLVQSGAEVKKPGASVKVSCKASGYTFTSYYMHWVRQAPGQGLEWMGWINPNSGGTNYAQKFQGRVTMTRDTSISTAYMELSSLRSEDTAVYYCARGYWYAYFTYINYGYFDNWGQGTLVTVSS VL: DIALTQPASVSGSPGQSITISCTGTSSDVGGYNYVSWYQQHPGKAPKLMIYDVSNRPSGVSNRFSGSKSGNTASLTISGLQAEDEADYYCQSYDNNSDVVFGGGTKLTVLG | – | 1.4 nM | –
12 | PRO-029 (Fab, V domains shown) VH: QVQLVQSGAEVKKPGASVKVSCKASGYTFTSYYMHWVRQAPGQGLEWMGWINPNSGGTNYAQKFQGRVTMTRDTSISTAYMELSSLRSEDTAVYYCARTWQYSYFYYLDGGYYFDIWGQGTLVTVSS VL: DIVLTQSPATLSLSPGERATLSCRASQSVSSSYLAWYQQKPGQAPRLLIYGASSRATGVPARFSGSGSGTDFTLTISSLEPEDFATYYCQQTNNAPVTFGQGTKVEIKR | – | < 1 nM | –
13 | PRO-002 (Fab, V domains shown) VH: QVQLVQSGAEVKKPGASVKVSCKASGYTFTSYYMHWVRQAPGQGLEWMGWINPNSGGTNYAQKFQGRVTMTRDTSISTAYMELSSLRSEDTAVYYCARDFLGYEFDYWGQGTLVTVSS VL: DIELTQPPSVSVAPGQTARISCSGDALGDKYASWYQQKPGQAPVLVIYDDSDRPSGIPERFSGSNSGNTATLTISGTQAEDEADYYCQSYDYSADYVFGGGTKLTVLG | – | 43 nM | –
